According to article doi:10.1101/2025.08.19.670962, “Structural basis for binding of RILPL1 to TMEM55B reveals a lysosomal platform for adaptor assembly through a conserved TBM motif” (bioRxiv, 2025):

What was measured:
WT TMEM55B region 80-166 = experiment: In vitro pulldown of untagged TMEM55B with His-tagged bait peptides; type: binding; settings: 10 μM bait, 10 μM prey, Ni2+-agarose, 20 mM Tris pH 8.0, 300 mM NaCl, 20 mM imidazole, 15 minutes, SDS-PAGE, Coomassie, qualitative
Text: Figure 5: In vitro pulldowns of TMEM55B with TBM peptides. (A) Domain organization of TMEM55B interactors depicting the sequence context of the TBM. Regions that are α-helical have been drawn as cylinders; α/βfolds are shown as rectangles; and unstructured segments are zigzag lines. (B) Cartoon depiction of the in vitro pulldown strategy using His-tagged peptides. […] As a control, the R151E variant of TMEM55B was used, which abolishes the interactions with RILPL1 (bottom panel). […] Protein/peptide concentrations were 10μM (see Methods) and visualization was enabled by Coomassie Brilliant Blue G250.
Given that the TBMs reside in flexible regions of the adaptor proteins (Figure 5A), peptides should be able to mimic their interactions with TMEM55B. Peptides corresponding to the potential TBMs were synthesized with an N-terminal hexahistidine tag to enable in vitro pulldowns of TMEM55B (80-166; Figure 5B). Slightly extended peptides beyond the minimal TBMs were generated to preclude any structural or conformational restrictions on the interaction with TMEM55B. The peptide TBM from RILPL1 was used as a positive control, and the mutant R151E™ of TMEM55B provided a negative control. Peptides run on conventional SDS-PAGE gels are generally not visible in this assay. […]

[1] = target: T1, TMEM55B (residues 80-160) (Homo sapiens, UniProt Q86T03); experiment: Isothermal titration calorimetry of TBM peptides / OCRL PH domain with TMEM55B; type: binding; settings: ITC; titration shown in the figure panel (Figure 1G / Figure 6B); value printed in the picture, ±% = fitting error
T1 construct: injected into a cell containing TMEM55B (residues 80-160); hexa-Histidine (N); made in house; host or cells: E. coli BL21(DE3)
Description: Calorimetry experiments were performed using an ITC200 (Particular Sciences) as described in dx.doi.org/10.17504/protocols.io.j8nlkr7x6v5r/v1. Experiments were performed 3 or more times for each interacting pair. The TBM peptides were dialyzed together with TMEM55B80-160 (20 mM) Tris-HCl, 150mM NaCl, 5mM and 1mM DTT, pH 7.5). Protein concentrations were calculated based on their absorbance at 280nm using a ND-1000 NanoDrop spectrophotometer (Thermo Scientific), peptide concentration was determined by adding buffer to a known amount of lyophilized peptide factoring in their purity. The proteins were centrifuged at 13,100 x g for 10 minutes prior to the determination of protein concentration and ITC analyses. […]. We used Origin 7.0 with the ITC plugin for data processing, and assumed a single binding mode for data fitting.

T1 sequence (Q86T03 73-153): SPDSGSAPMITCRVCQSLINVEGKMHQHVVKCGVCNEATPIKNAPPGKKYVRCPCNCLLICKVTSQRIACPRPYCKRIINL

- Kd [1]: 900 nM
B1: OCRL-PH domain: recombinant His-tagged PH domain, residues 1-129 of OCRL, ~16kDa (protein, UniProt Q01968 1-129, looked up, fragment)
chain: MEPPLPVGAQPLATVEGMEMKGPLREPCALTLAQRNGQYELIIQLHEKEQHVQDIIPINSHFRCVQEAEETLLIDIASNSGCKIRVQGDWIRERRFEIPDEEHCLKFLSAVLAAQKAQSQLLVPEQKDS
modifications: PH domain His tag
notes: recombinant His-tagged PH domain, residues 1-129 of OCRL, ~16kDa
- pulldown of untagged WT TMEM55B (80-166) by His-tagged bait (WT TMEM55B region 80-166): interacts robustly
- pulldown of untagged WT TMEM55B (80-166) by His-tagged bait (WT TMEM55B region 80-166; listed as PH domain of OCRL1): successfully pulldown
